Patent US20100040600A1, “Agents for Promoting the Growth of Hematopoietic Stem Cells” (CHUGAI SEIYAKU KABUSHIKI KAISHA, priority 2006, published 2010)

Key:
mouse bone marrow = conditions: TPO administered to TPO-knockout mice; cited from earlier work
[1] = tested on: human cord blood cells (CD34-positive cells); conditions: with or without TPO treatment; single administration; cited from earlier work
human CFU-Meg colonies = experiment: Number of human CFU-Meg colonies in bone marrow of mice transplanted with human cord blood-derived hematopoietic stem cells (Example 2); type: in vivo, NOD.CB17-Prkdc<scid>/J mice; conditions: vs vehicle-administered group; s.c. 0.25 + 2 mg/kg per day, three weeks; bone marrow cells cultured 13 days in MegaCult-C; FIG. 2
Experimental: Mice used were acclimatized six-week-old male NOD.CB17-Prkdc/J. After systemic irradiation with 3.0 Gy of X-ray, an anti-asialo-GM1 antibody was intraperitoneally administered to the mice once every ten days from the day of irradiation. 5×10^4 human cord blood-derived CD34-positive cells were transplanted to each mouse at the caudal vein one day after irradiation. From the day after transplantation, the sc(Fv)2 antibody of SEQ ID NO: 73 was administered every day for ten consecutive days, and then after that, administration was conducted for five days followed by two days of break. The antibody was subcutaneously administered at 0.25 mg/5 ml/kg in the morning and 2 mg/5 ml/kg in the evening, at eight-hour intervals, twice a day for three weeks in total (n=10). 20 mmol/l citric acid buffer containing 0.02% Tween 80 was administered as a vehicle in the same way as the sc(Fv)2 antibody of SEQ ID NO: 73. Bone marrow cells were collected after three weeks transplantation. Bone marrow cells contained in the mouse femurs were cultured with the sc(Fv)2 antibody of SEQ ID NO: 73 for 13 days using MegaCult-C (StemCell Technologies). The number of human CFU-Meg colonies was determined by counting CD41-positive colonies containing 50 or more cells under a light microscope.

[2] = tested on: human cord blood-derived CD34-positive cells; experiment: Engraftment number of different human blood cell lineages in bone marrow of mice transplanted with human cord blood-derived hematopoietic stem cells (Example 1); type: in vivo, NOD.CB17-Prkdc<scid>/J mice
Source text: Engraftment of transplanted hematopoietic stem cells in the bone marrow is required in hematopoietic stem cell transplantation. The present invention provides agents which comprise an agonist for the TPO receptor (c-mpl) as an active ingredient for enhancing the engraftment of transplanted CD34-positive hematopoietic cells in the bone marrow. The engraftment of transplanted CD34-positive hematopoietic cells (CD34-positive hematopoietic stem cells and CD34-positive hematopoietic precursor cells) in the bone marrow can be promoted by administering the agents of the present invention. The presence or absence, or the degree of engraftment of transplanted CD34-positive hematopoietic cells in the bone marrow (the engraftment rate of transplanted CD34-positive hematopoietic cells in the bone marrow) can be assessed, for example, by determining the absolute number of human CD34-positive hematopoietic cells in the bone marrow of NOD/SCID mice to which human hematopoietic cells are transplanted. Human cells can be identified among the mouse bone marrow cells by using a fluorescent-labeled, human CD34-specific antibody for detection. Specifically, the engraftment rate of transplanted CD34-positive hematopoietic cells in the bone marrow can be determined by the following procedures. First, NOD.CB17-Prkdc/J mice, to which human cord blood-derived CD34-positive cells have been transplanted, are euthanized three weeks after transplantation. The right and left femurs are collected, and then their epiphyseal portions are removed by scissors. Bone marrow cells are flushed out using a 26G-needle syringe and collected. After washing with IMDM containing 2% FBS, 5 ml of erythrocyte lysis solution is added, and the mixture is allowed to stand for five minutes. The mixture is centrifuged and supernatant is removed. Then, the precipitate is suspended in 2 ml of IMDM containing 2% FBS. The suspension is filtered through a 70-μm membrane to prepare a bone marrow cell suspension (2 ml/two femurs for each mouse). The cell suspension is aliquoted into 100-μl samples, and the cells are stained for 15 minutes with a fluorescent-labeled, human CD34-specific antibody and PI (final concentration: 2 μg/ml). After washing, 50 μl of Flow-Count fluorescent particles are added, and the engraftment number of human CD34-positive cells is determined using the EPICS XL cell analyzer. The determination may be performed, for example, according to Application Note 5: “Determination of the absolute number of cells using Flow-Count” (Beckman Coulter, Inc.). Likewise, the absolute number of different human blood cell lineages in the bone marrow can be determined using a variety of detection antibodies. The absolute number of human cells contained in the two femurs is represented by the following formula:
Absolute number of human cells=determined value (cells/μl)×1/2(Flow-Count amount added (50)/sample amount added (100))×2000 (2 ml/two femurs/mouse)
Mice used were acclimatized six-week-old male NOD.CB17-Prkdc/J. After systemic irradiation with 3.0 Gy of X-ray, an anti-asialo-GM1 antibody was intraperitoneally administered to the mice once every ten days from the day of irradiation. 5×10^4 human cord blood-derived CD34-positive cells were transplanted to each mouse at the caudal vein one day after irradiation. From the day after transplantation, the sc(Fv)2 antibody of SEQ ID NO: 73 was administered every day for ten consecutive days, and after that, administration was conducted for five days followed by two days of break. The doses were: 0.25 mg/5 ml/kg in the morning, and 2 mg/5 ml/kg in the evening. The antibody was subcutaneously administered at eight-hour intervals, twice a day for three weeks in total (n=10). 20 mmol/l citric acid buffer containing 0.02% Tween 80 was administered as a vehicle in the same way as the sc(Fv)2 antibody of SEQ ID NO: 73. The bone marrow was collected after three weeks transplantation, and FACS analysis was performed using EPIX XL. […]

[3] = tested on: human cord blood-derived CD34-positive cells; experiment: Dose-dependent effect on engraftment number of different human blood cell lineages in bone marrow of transplanted mice (Example 3); type: in vivo, NOD.CB17-Prkdc<scid>/J mice; conditions: high, medium, low dose s.c. for ten days, FIG. 3
Experimental: Mice used were acclimatized six-week-old male NOD.CB17-Prkdc/J. After systemic irradiation with 3.0 Gy of X-ray, an anti-asialo-GM1 antibody was intraperitoneally administered to the mice on the day of irradiation and eight days after irradiation. 5×10^4 human cord blood-derived CD34-positive cells were transplanted to each mouse at the caudal vein the day after irradiation. The sc(Fv)2 antibody of SEQ ID NO: 73 was administered every day for ten consecutive days from the day after the irradiation, according to the following three dosages (subcutaneous administration; n=9 for each group).
High-dose group (0.25 mg/kg in the morning, an eight-hour interval, and 2 mg/kg in the evening, per day)
Medium-dose group (0.05 mg/kg in the morning, an eight-hour interval, and 0.2 mg/kg in the evening, per day)
Low-dose group (0.01 mg/kg in the morning, an eight-hour interval, and 0.02 mg/kg in the evening, per day)
The dose was adjusted so that the minimum drug concentration in peripheral blood during the administration period is 50 ng/ml, 10 ng/ml, or 2 ng/ml in the high-, medium-, or low-dose group, respectively.
20 mmol/l sodium citrate/150 mM NaCl buffer (pH 6.5) containing 0.02% Tween 80 was administered as a vehicle in the same way as the sc(Fv)2 antibody of SEQ ID NO: 73. Bone marrow cells were collected after two weeks transplantation, and FACS analysis was performed. The absolute number of human cells was determined using Flow-Count (Beckman).

[4] = vs vehicle group, s.c. 0.25 + 2 mg/kg per day, three weeks, FIG. 1
[5] = two weeks after transplantation
[6] = summary statement of the inventors' findings

Molecule: TPO: cytokine that promotes growth and differentiation of megakaryocytic lineage cells; ligand for c-mpl
- mouse bone marrow transplantation efficiency (mouse bone marrow): increased
- frequencies of CD34 positive cells [1]: did not differ significantly

B1: sc(Fv)2 antibody of SEQ ID NO: 73: humanized sc(Fv)2 antibody comprising the amino acid sequence of SEQ ID NO: 73; c-mpl agonist (protein, listed as Homo sapiens)
chain: MDWTWRFLFVVAAATGVQSQVQLVQSGPEVKKPGASVKVSCKASGYTFTNSWMNWVRQRPGKGLEWIGRIYPGDGETIYNGKFRVRVTITADESTSTAYMQLSSLRSEDTAVYYCARGYDDYSFAYWGQGTTVTVSSGGGGSGGGGSGGGGSDIVMTQSPLSLPVTPGEPASISCRSSKSLLHSNGNTYLYWFLQKPGQSPQLLIYRMSNLASGVPDRFSGSGSGTDFTLKISRVEAEDVGVYYCMQHIEYPFTFGQGTKLEIKGGGGSGGGGSGGGGSQVQLVQSGPEVKKPGASVKVSCKASGYTFTNSWMNWVRQRPGKGLEWIGRIYPGDGETIYNGKFRVRVTITADESTSTAYMQLSSLRSEDTAVYYCARGYDDYSFAYWGQGTTVTVSSGGGGSGGGGSGGGGSDIVMTQSPLSLPVTPGEPASISCRSSKSLLHSNGNTYLYWFLQKPGQSPQLLIYRMSNLASGVPDRFSGSGSGTDFTLKISRVEAEDVGVYYCMQHIEYPFTFGQGTKLEIK
- number of CFU-Meg colonies in the bone marrow (human CFU-Meg colonies): statistically significantly increased
- number of human CD34-positive cells in right and left femurs ([2]; vs vehicle group, s.c. 0.25 mg/kg morning + 2 mg/kg evening, three weeks, bone marrow three weeks after transplantation, FIG. 1): statistically significantly increased
- number of CD19-positive cells in right and left femurs [2, 4]: statistically significantly increased
- number of CD33-positive cells in right and left femurs [2, 4]: statistically significantly increased
- number of CD41-positive cells in right and left femurs [2, 4]: statistically significantly increased
- number of CD45-positive cells in right and left femurs [2, 4]: statistically significantly increased
- number of CD34-positive cells in right and left femurs ([3]; bone marrow two weeks after transplantation): increase in a dose-dependent manner
- number of CD19-positive cells in right and left femurs [3, 5]: increase in a dose-dependent manner
- number of CD33-positive cells in right and left femurs [3, 5]: increase in a dose-dependent manner
- number of CD38-positive cells in right and left femurs [3, 5]: increase in a dose-dependent manner
- number of CD41-positive cells in right and left femurs [3, 5]: increase in a dose-dependent manner
- number of CD45-positive cells in right and left femurs [3, 5]: increase in a dose-dependent manner

B2: VB22B sc(Fv)2: agonistic minibody against the TPO receptor; amino acid sequence of SEQ ID NO: 14 (protein, listed as Mus musculus)
chain: MEWPLIFLFLLSGTAGVHSQVQLQQSGPELVKPGASVKISCKASGYAFTNSWMNWVKQRPGKGLEWIGRIYPGDGETIYNGKFRVKATLTADKSSSTAYMDISSLTSEDSAVYFCARGYDDYSFAYWGQGTLVTVSAGGGGSGGGGSGGGGSDIVMTQAAPSIPVTPGESVSISCRSSKSLLHSNGNTYLYWFLQRPGQSPQLLIYRMSNLASGVPDRFSGSGSGTAFTLRISRVEAEDVGVYYCMQHIEYPFTFGSGTKLEIKGGGGSGGGGSGGGGSQVQLQQSGPELVKPGASVKISCKASGYAFTNSWMNWVKQRPGKGLEWIGRIYPGDGETIYNGKFRVKATLTADKSSSTAYMDISSLTSEDSAVYFCARGYDDYSFAYWGQGTLVTVSAGGGGSGGGGSGGGGSDIVMTQAAPSIPVTPGESVSISCRSSKSLLHSNGNTYLYWFLQRPGQSPQLLIYRMSNLASGVPDRFSGSGSGTAFTLRISRVEAEDVGVYYCMQHIEYPFTFGSGTKLEIK
- engraftment of transplanted human cord blood-derived hematopoietic stem cells (CD34-positive hematopoietic cells) in the bone marrow [2, 6]: enhanced the engraftment
- growth of multilineage blood precursor cells [2, 6]: induced significant growth
- human megakaryocyte-specific differentiation (increase of megakaryocytic cells) [2, 6]: induced human megakaryocyte-specific differentiation
